These results are taken from publication PMC4226653 (Journal of molecular biology, 2012).

Test [1] concerns the target T1, human Nup88 N-terminal domain (residues 1–493) (human, UniProt Q99567 1-493).
T1 sequence (looked up): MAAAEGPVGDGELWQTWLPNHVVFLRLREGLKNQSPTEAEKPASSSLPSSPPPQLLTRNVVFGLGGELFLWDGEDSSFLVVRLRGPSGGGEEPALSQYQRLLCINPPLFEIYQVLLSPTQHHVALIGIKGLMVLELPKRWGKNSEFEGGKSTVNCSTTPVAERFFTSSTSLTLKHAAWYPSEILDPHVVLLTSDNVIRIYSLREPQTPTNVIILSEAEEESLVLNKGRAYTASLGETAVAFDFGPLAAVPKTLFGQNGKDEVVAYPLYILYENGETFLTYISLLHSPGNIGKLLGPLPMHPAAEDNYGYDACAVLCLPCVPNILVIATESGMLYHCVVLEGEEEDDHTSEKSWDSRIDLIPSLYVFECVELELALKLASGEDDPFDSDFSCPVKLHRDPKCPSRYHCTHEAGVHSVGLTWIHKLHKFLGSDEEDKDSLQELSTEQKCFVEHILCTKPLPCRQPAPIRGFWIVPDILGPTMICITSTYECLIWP
Description: SEC-MALS. (In general: Size exclusion chromatography separates by hydrodynamic size, large species first.)

The target in test [2] is yNup82^NTD•yNup159^T pair (S. cerevisiae, UniProt P40368 1-452; P40477 1425-1460). Description: SEC-MALS.
Sequence of yNup82^NTD•yNup159^T pair (P40368 1-452, chain 1 of 2): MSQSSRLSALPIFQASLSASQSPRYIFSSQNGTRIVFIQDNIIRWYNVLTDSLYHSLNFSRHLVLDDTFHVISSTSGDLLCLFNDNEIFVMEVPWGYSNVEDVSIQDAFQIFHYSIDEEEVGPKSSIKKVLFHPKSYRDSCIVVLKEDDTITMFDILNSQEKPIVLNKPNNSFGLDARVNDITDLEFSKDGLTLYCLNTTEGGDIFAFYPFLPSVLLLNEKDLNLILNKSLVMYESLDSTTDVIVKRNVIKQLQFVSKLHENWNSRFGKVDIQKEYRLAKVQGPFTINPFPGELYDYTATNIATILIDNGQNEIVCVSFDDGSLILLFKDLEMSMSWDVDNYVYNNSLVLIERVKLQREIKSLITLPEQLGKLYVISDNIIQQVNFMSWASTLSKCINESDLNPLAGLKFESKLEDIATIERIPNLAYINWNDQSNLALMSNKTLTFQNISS
Sequence of yNup82^NTD•yNup159^T pair (P40477 1425-1460, chain 2 of 2): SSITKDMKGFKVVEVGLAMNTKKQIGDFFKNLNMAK

B1: mouse Nup98 autoproteolytic domain (residues 732–880) (domain or fragment, UniProt Q6PFD9 732-880, looked up)
chain: AGIVLTKVGYYTIPSMDDLAKITNEKGECIVSDFTIGRKGYGSIYFEGDVNLTNLNLDDIVHIRRKEVIVYVDDNQKPPVGEGLNRKAEVTLDGVWPTDKTSRCLIKSPDRLADINYEGRLEAVSRKQGAQFKEYRPETGSWVFKVSHF
By stoichiometry N is commonly meant a count of units in the complex or per binding partner. Turning to B1, the “stoichiometry N” value in test [1] and in test [2] was 1 throughout.
